The values below come from patent US20190040156A1.

What is called Kd is the equilibrium constant for the complex coming apart.

One test deals with human TNFα (human) (UniProt P01375). Description: CG-MALS of antibody:TNFα complexes, molar ratios about 0.5 to 5.0, antibody 10 µg/mL, PBS pH 7.2.
The target of test [1] is human FcγRIIb (CD32b) (human) (UniProt P31994). Description: SPR, Biacore T200, antibody captured on protein A, FcγR as analyte, 37 °C, N=3.
The target of test [2] is human FcγRI (CD64) (human) (UniProt P12314). The description is as above.
human FcγRI (CD64) (human), sequence (P12314 16-288 limits assumed): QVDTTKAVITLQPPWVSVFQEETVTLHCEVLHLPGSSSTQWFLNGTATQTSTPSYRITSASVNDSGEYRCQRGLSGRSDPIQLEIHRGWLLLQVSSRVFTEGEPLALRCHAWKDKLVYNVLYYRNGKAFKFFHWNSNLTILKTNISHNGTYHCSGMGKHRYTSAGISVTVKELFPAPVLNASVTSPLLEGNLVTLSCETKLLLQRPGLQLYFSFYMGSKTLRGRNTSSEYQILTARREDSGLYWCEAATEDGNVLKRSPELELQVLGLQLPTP

Some results are limits rather than exact numbers.

human TNFα (human), sequence (P01375 77-233 limits assumed): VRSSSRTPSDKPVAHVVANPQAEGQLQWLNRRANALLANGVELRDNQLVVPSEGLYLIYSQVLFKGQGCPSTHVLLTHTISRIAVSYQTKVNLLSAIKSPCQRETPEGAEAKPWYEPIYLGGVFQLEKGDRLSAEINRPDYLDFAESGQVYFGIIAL
human FcγRIIb (CD32b) (human), sequence (P31994 43-217 limits assumed): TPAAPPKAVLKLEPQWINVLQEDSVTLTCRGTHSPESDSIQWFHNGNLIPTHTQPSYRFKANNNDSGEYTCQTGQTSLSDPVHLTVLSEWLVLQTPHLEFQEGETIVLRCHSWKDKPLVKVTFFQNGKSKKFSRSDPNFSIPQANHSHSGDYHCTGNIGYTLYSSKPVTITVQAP

As to “parental anti-TNFα antibody (adalimumab, as described in U.S. Pat. No. 6,090,382)”, the maximum immune complex weight average molecular weight with human TNFα (human) is greater than 1300 kDa. Further, the Kd in test [1] was found to be 5730 nM; in test [2], 0.0563 nM.
